Test results taken from the supplement of paper PMC10126150.
± gives the standard deviation of the averaged measurements.

Test system: ATP
Assay: switch fluorescence ratio, 500 uM ATP over buffer (Cy3 cluster intensity, sum of 5 cycles each) (fold (ratio)); higher = stronger signal-on switching upon ATP binding; sequences stand for … in TCGTCGGCAGCGTCAGATGTGTATAAGAGACAGTTTTTTTTTTTTTTTTTTTTTTTTT…TC
Settings: aptamer strand: ATP DNA aptamer (quencher-CACCTGGGGGAGTATTGCGGAGGAAGG + anchor), 100 nM annealed; ATP concentration: 500 uM
Method in brief: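 Cy3-labelled switching-strand clusters on a modified Illumina MiSeq flow-cell were annealed to 100 nM quencher-labelled ATP aptamer, imaged in selection buffer, then imaged after 15 min with 500 uM ATP at 22 °C. Five buffer/ATP cycles ran, with NaOH stripping and re-annealing between them. The fluorescence ratio is summed target-cycle over summed buffer-cycle Cy3 intensity per cluster, averaged per switch-domain sequence. Clusters outside 100-1000 RFU were excluded.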
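Note: ATP exposure 15 min at 22 °C before imaging.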

Sequence | switch fluorescence ratio
AGGGTACGGG | 1.063 ± 0.0037
AGGGTATTTA | 1.007 ± 0.01
AGGGTATTTG | 0.987 ± 0.011
AGGGTCATCT | 1.012 ± 0.002
AGGGTCGACT | 1.033 ± 0.0095
AGGGTCGGTA | 1.02 ± 0.033
AGGGTCTCAT | 1.02 ± 0.022
AGGGTCTTGA | 1.007 ± 0.0017
AGGGTGAATG | 1 ± 0.0097
AGGGTGATTA | 1.01 ± 0.018
AGGGTGCGGA | 0.989 ± 0.036
AGGGTGGGCT | 0.996 ± 0.012
AGGGTGTGCA | 0.999 ± 0.049
AGGGTGTGTC | 1.007 ± 0.0098
AGGGTTAGGG | 1.02 ± 0.03
AGGGTTAGTT | 1.01 ± 0.013
AGGGTTCGAC | 1.01 ± 0.039
AGGGTTGGCT | 1.02 ± 0.052
AGGGTTGGTA | 1.01 ± 0.011
AGGGTTGTGA | 1 ± 0.026
AGGGTTTTCG | 0.972 ± 0.022
AGGTAAAGGC | 1.02 ± 0.022
AGGTAAAGTA | 0.915 ± 0.025
AGGTAACGGG | 0.987 ± 0.0099
AGGTAAGAGG | 0.96 ± 0.026

Sequence | switch fluorescence ratio
AGGTAAGTGC | 1.025 ± 0.0017
AGGTAATGGT | 0.998 ± 0.039
AGGTAATTAG | 1 ± 0.012
AGGTACTCCG | 1.09 ± 0.015
AGGTAGAGGA | 1.01 ± 0.035
AGGTAGTTTG | 0.9979 ± 0.0018
AGGTAGTTTT | 0.982 ± 0.011
AGGTATAGGA | 1.01 ± 0.013
AGGTCAAGAA | 1.07 ± 0.079
AGGTCAGCCT | 1.03 ± 0.029
AGGTCAGCTG | 0.99 ± 0.018
AGGTCGGCAA | 1.02 ± 0.014
AGGTCGGCTT | 1.006 ± 0.0024
AGGTCGGGCG | 0.982 ± 0.026
AGGTCTAGAC | 1.04 ± 0.0095
AGGTCTAGAG | 0.976 ± 0.024
AGGTCTCTTT | 0.982 ± 0.021
AGGTCTGGCA | 0.995 ± 0.016
AGGTGACAGT | 0.982 ± 0.021
AGGTGACGAG | 1.02 ± 0.014
AGGTGAGGGC | 1.02 ± 0.015
AGGTGATGGT | 0.997 ± 0.023
AGGTGCATAA | 1.05 ± 0.017
AGGTGCTACG | 1.03 ± 0.012
AGGTGCTCAT | 1.02 ± 0.036

Sequence | switch fluorescence ratio
AGGTGCTTGA | 0.975 ± 0.078
AGGTGGGATT | 1.02 ± 0.033
AGGTGGGCGG | 0.969 ± 0.022
AGGTGGGGTT | 0.996 ± 0.051
AGGTGGGTGG | 1.02 ± 0.04
AGGTGGTCGG | 0.966 ± 0.038
AGGTGGTTTT | 1.014 ± 0.0041
AGGTGTAATT | 0.987 ± 0.031
AGGTGTATGT | 1.01 ± 0.061
AGGTGTCGTC | 0.975 ± 0.018
AGGTGTGTAG | 0.99 ± 0.032
AGGTGTTAGC | 0.955 ± 0.046
AGGTTAAGGA | 1.04 ± 0.087
AGGTTAATAT | 1 ± 0.043
AGGTTACCGG | 0.987 ± 0.019
AGGTTAGAGG | 0.993 ± 0.016
AGGTTATGCA | 1.01 ± 0.032
AGGTTATGGG | 1.04 ± 0.082
AGGTTATTA | 0.9856 ± 0.0031
AGGTTATTAT | 0.999 ± 0.029
AGGTTCAGCA | 1 ± 0.013
AGGTTGAAG | 0.976 ± 0.034
AGGTTGAAGC | 0.993 ± 0.017
AGGTTGAGGG | 0.984 ± 0.025
AGGTTGCGAT | 1.01 ± 0.013

Sequence | switch fluorescence ratio
AGGTTGCTCT | 0.9947 ± 0.0098
AGGTTGGGTG | 1.05 ± 0.013
AGGTTGGGTT | 0.997 ± 0.023
AGGTTGTAAT | 1 ± 0.016
AGGTTGTCAA | 0.969 ± 0.028
AGGTTTAGTA | 1.02 ± 0.015
AGGTTTGGCT | 1.01 ± 0.028
AGGTTTGGTT | 1.01 ± 0.04
AGGTTTGTAG | 0.983 ± 0.013
AGGTTTTTAG | 0.944 ± 0.024
AGGTTTTTCA | 0.983 ± 0.017
AGGTTTTTCT | 0.987 ± 0.024
AGTAAAAAGG | 0.993 ± 0.021
AGTAAAAAGT | 1.02 ± 0.026
AGTAAAATGG | 1.01 ± 0.038
AGTAAACCAT | 1.04 ± 0.03
AGTAAAGTGC | 1.03 ± 0.045
AGTAAAGTTA | 1.008 ± 0.008
AGTAAATATA | 0.993 ± 0.022
AGTAAATCCT | 1.16 ± 0.0084
AGTAACCGGG | 1.02 ± 0.035
AGTAAGACAG | 0.986 ± 0.08
AGTAAGGTTT | 0.985 ± 0.04
AGTAAGTGGG | 0.956 ± 0.048
AGTAATGGG | 0.97 ± 0.054

Sequence | switch fluorescence ratio
AGTAATGTAG | 1 ± 0.037
AGTAATGTTT | 0.994 ± 0.02
AGTAATTTGC | 1.02 ± 0.012
AGTACCATGG | 1.01 ± 0.06
AGTACGGTAA | 1.13 ± 0.025
AGTACGTCTC | 1.04 ± 0.0099
AGTAGGAAGC | 1.01 ± 0.03
AGTAGGAATT | 0.99 ± 0.038
AGTAGGACGC | 1.02 ± 0.018
AGTAGGGGCC | 1.012 ± 0.0083
AGTAGGGGG | 1 ± 0.056
AGTAGTACGG | 1 ± 0.029
AGTAGTGCGT | 0.997 ± 0.04
AGTAGTGGGG | 0.994 ± 0.013
AGTATAATTT | 0.978 ± 0.045
AGTATATATT | 1.003 ± 0.0035
AGTATATGTG | 0.955 ± 0.023
AGTATATTTT | 1.006 ± 0.0046
AGTATCACGG | 1.011 ± 0.0068
AGTATCGTGC | 0.9968 ± 0.0098
AGTATGACGT | 0.986 ± 0.026
AGTATGAGGG | 1 ± 0.076
AGTATGAGTC | 1.056 ± 0.01
AGTATGGTAG | 1.0145 ± 0.00092
AGTATTAATG | 1 ± 0.04

Sequence | switch fluorescence ratio
AGTATTAGAA | 0.978 ± 0.012
AGTATTGGTT | 0.986 ± 0.021
AGTCAAACGA | 1.03 ± 0.028
AGTCAAATGG | 0.996 ± 0.043
AGTCAAGGGT | 1 ± 0.0014
AGTCAGGTT | 1.02 ± 0.019
AGTCAGTCTG | 1.01 ± 0.059
AGTCAGTTGG | 0.967 ± 0.041
AGTCATAAAG | 0.984 ± 0.014
AGTCCAAGAG | 0.9889 ± 0.0045
AGTCCCGTGC | 1.03 ± 0.052
AGTCCTAGCC | 0.97 ± 0.012
AGTCCTCGGC | 1.13 ± 0.071
AGTCCTGGCC | 0.999 ± 0.022
AGTCCTGGCG | 1.07 ± 0.023
AGTCCTTTTT | 0.979 ± 0.021
AGTCGATGTC | 0.9763 ± 0.0039
AGTCGCCCGC | 1.02 ± 0.032
AGTCGCGGAG | 1 ± 0.08
AGTCGGGGGA | 1.01 ± 0.023
AGTCGGGGTA | 1.02 ± 0.027
AGTCGGTGTG | 0.963 ± 0.0099
AGTCGTCTTG | 0.977 ± 0.026
AGTCTAAACT | 1.02 ± 0.016
AGTCTACTAT | 1 ± 0.0088

Sequence | switch fluorescence ratio
AGTCTCAAGT | 1.01 ± 0.045
AGTCTGAAGG | 0.995 ± 0.014
AGTCTGCCA | 0.977 ± 0.015
AGTCTGGGGG | 0.959 ± 0.011
AGTCTTAGTC | 0.9497 ± 0.002
AGTGAAGGGG | 1.1 ± 0.15
AGTGAATTCA | 1.016 ± 0.0062
AGTGACGGTT | 0.977 ± 0.021
AGTGAGAGGG | 0.966 ± 0.051
AGTGAGGCGG | 1.02 ± 0.013
AGTGAGGGAA | 0.9787 ± 0.003
AGTGAGGGGA | 0.975 ± 0.015
AGTGAGTGCA | 1.039 ± 0.0094
AGTGATGTGG | 1 ± 0.024
AGTGATTCGT | 1.01 ± 0.038
AGTGATTGAA | 0.987 ± 0.033
AGTGATTGGG | 0.995 ± 0.031
AGTGCAACTG | 1.01 ± 0.03
AGTGCAGGGA | 0.9894 ± 0.0077
AGTGCCTATG | 0.994 ± 0.019
AGTGCGCATG | 1.01 ± 0.032
AGTGCGGCCG | 0.9846 ± 0.0036
AGTGCGGTGG | 1 ± 0.059
AGTGCTTACG | 0.995 ± 0.025
AGTGCTTTTA | 0.9927 ± 0.0073

Sequence | switch fluorescence ratio
AGTGGATATT | 1.02 ± 0.011
AGTGGCACTG | 0.996 ± 0.0088
AGTGGCTTCC | 2.043 ± 0.013
AGTGGGATTA | 1.01 ± 0.021
AGTGGGCGGG | 1.003 ± 0.0097
AGTGGGCTAT | 0.999 ± 0.027
AGTGGGGAGC | 0.978 ± 0.031
AGTGGTATAG | 1.01 ± 0.034
AGTGGTGCCG | 0.989 ± 0.02
AGTGGTGGTT | 0.977 ± 0.057
AGTGGTGTCT | 1.01 ± 0.033
AGTGGTGTTT | 0.989 ± 0.016
AGTGTAATGC | 1.15 ± 0.022
AGTGTATAAA | 1.042 ± 0.0077
AGTGTATTGA | 1 ± 0.036
AGTGTCGTGG | 1 ± 0.046
AGTGTCTCCT | 1.02 ± 0.058
AGTGTGCAGG | 0.992 ± 0.017
AGTGTGCGTG | 0.9812 ± 0.0076
AGTGTGGGTA | 0.99 ± 0.021
AGTGTGGGTT | 0.979 ± 0.0047
AGTGTGTTAG | 0.987 ± 0.015
AGTGTGTTTT | 0.996 ± 0.015
AGTTAAAGAG | 1.01 ± 0.021
AGTTACTTAG | 1.07 ± 0.038
